The target of this assay is wild-type HCMV gB expressed in HEK293T cells (human cytomegalovirus (strain not stated)) (UniProt P06473). Description: far-Western, overlay or dot blot.
UniProt P06473, sequence (P06473 32-906): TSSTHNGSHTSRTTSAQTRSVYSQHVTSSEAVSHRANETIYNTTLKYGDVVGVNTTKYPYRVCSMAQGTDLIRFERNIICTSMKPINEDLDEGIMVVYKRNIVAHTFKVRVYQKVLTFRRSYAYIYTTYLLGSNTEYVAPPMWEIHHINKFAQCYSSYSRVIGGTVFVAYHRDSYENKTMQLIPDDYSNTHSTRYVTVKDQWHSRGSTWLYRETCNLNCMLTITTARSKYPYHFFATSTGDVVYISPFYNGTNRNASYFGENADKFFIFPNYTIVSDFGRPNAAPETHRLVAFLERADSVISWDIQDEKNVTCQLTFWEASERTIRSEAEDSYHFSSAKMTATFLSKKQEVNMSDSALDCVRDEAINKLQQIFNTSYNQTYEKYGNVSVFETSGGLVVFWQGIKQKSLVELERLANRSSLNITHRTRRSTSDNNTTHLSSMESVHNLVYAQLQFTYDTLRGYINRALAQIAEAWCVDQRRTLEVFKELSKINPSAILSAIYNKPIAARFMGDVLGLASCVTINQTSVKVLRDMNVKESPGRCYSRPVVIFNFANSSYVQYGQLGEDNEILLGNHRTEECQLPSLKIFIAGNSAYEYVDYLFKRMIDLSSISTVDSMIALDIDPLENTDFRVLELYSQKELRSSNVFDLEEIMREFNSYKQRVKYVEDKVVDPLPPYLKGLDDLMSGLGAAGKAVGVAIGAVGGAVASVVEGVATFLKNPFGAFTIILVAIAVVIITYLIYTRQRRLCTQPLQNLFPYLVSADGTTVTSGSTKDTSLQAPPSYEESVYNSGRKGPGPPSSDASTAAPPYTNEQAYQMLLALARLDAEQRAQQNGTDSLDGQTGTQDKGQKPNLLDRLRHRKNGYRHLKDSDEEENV

DC-SIGN-Fc, sequence (Q9NNX6 59-404): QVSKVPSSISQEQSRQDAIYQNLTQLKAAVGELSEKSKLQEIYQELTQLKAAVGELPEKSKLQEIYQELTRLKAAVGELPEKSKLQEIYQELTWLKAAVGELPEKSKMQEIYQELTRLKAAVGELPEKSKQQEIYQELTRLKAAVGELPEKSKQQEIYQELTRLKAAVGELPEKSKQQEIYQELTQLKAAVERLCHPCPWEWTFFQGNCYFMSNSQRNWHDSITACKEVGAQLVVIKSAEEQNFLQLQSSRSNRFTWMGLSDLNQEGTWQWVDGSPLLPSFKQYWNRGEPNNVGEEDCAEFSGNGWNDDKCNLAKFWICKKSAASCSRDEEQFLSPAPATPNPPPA

With “DC-SIGN-Fc (from UniProt Q9NNX6 59-404) (Fc fusion)”, the DC-SIGN-Fc binding normalized on gB expression (ratio) worked out at 1.15.
